# Test results from patent US20180258153A1 (Novo Nordisk, published 2018).
# Starred links: 1 amine or outer side, 2 acyl side, 3 side chain; linkers in the order of their positions; H or OH if unused. Non-standard residues stand in square brackets, D forms with d. Groups on a side chain read outwards from the residue. No end group written: not given here. *: point of attachment. C20 diacid = O=C(O)CCCCCCCCCCCCCCCCCCC(=O)*; γGlu = O=C(O)[C@H](CCC(=O)[*:2])N[*:1]; Desaminohistidyl = O=C(CCc1c[nH]cn1)*; Trx = NC[C@H]1CC[C@H](C(=O)O)CC1; AEEA = NCCOCCOCC(=O)O; Aib = CC(C)(N)C(=O)O
# B1: GLP-1 derivative of Example 1 (peptide)
# peptide: HXEGTFTSDVSSYLEEQAAREFIAWLVRGRK
# modifications: not fully specified; Aib at position 8 (GLP-1 numbering); epsilon-amino of Lys37 acylated with branched side chain: Pre-linker Ado; Branched linker eps-Lys(Bis); two Post-linkers Trx-gGlu-2xAdo, each carrying a C20 diacid Protractor
# notes: also called Chem. 21; N{Epsilon-37}-acylated [Aib8,Glu22,Arg26,Arg34,Lys37]-GLP-1-(7-37)-peptide
# B2: GLP-1 derivative of Example 17 (peptide)
# peptide: H[Aib]EGTFTSDVSSYLEEQAAREFIAWLVRKRG
# modifications: not fully specified (residue 29)
# notes: also called Chem. 37; N{Epsilon-35}-acylated [Aib8,Glu22,Arg26,Arg34,Lys35]-GLP-1-(7-37)-peptide
# B3: GLP-1 derivative of Example 18 (peptide)
# peptide: H[Aib]EGTFTSDVSSYLEEQAAREFIAWLVRGKG
# modifications: not fully specified (residue 30)
# notes: also called Chem. 38; N{Epsilon-36}-acylated [Aib8,Glu22,Arg26,Arg34,Lys36]-GLP-1-(7-37)-peptide
# B4: GLP-1 derivative of Example 10 (peptide)
# peptide: B1 peptide
# modifications: not fully specified; Aib at position 8 (GLP-1 numbering); epsilon-amino of Lys37 acylated with branched side chain: Pre-linker 4xeps-Lys; Branched linker eps-Lys(Bis); two Post-linkers Trx-gGlu, each carrying a C20 diacid Protractor
# notes: also called Chem. 30; N{Epsilon-37}-acylated [Aib8,Glu22,Arg26,Arg34,Lys37]-GLP-1-(7-37)-peptide
# B5: GLP-1 derivative of Example 11 (peptide)
# peptide: B1 peptide
# modifications: Aib at position 8 (GLP-1 numbering); epsilon-amino of Lys37 acylated with branched side chain: Pre-linker 2xAdo; Branched linker eps-Lys(Bis); two Post-linkers Trx-gGlu, each carrying a C20 diacid Protractor
# notes: also called Chem. 31; N{Epsilon-37}-acylated [Aib8,Glu22,Arg26,Arg34,Lys37]-GLP-1-(7-37)-peptide
# B6: GLP-1 derivative of Example 12 (peptide)
# peptide: B1 peptide
# modifications: Aib at position 8 (GLP-1 numbering); epsilon-amino of Lys37 acylated with branched side chain: Pre-linker 6xAdo; Branched linker eps-Lys(Bis); two Post-linkers Trx-gGlu, each carrying a C20 diacid Protractor
# notes: also called Chem. 32; N{Epsilon-37}-acylated [Aib8,Glu22,Arg26,Arg34,Lys37]-GLP-1-(7-37)-peptide
# B7: GLP-1 derivative of Example 13 (peptide)
# peptide: B1 peptide
# modifications: Aib at position 8 (GLP-1 numbering); epsilon-amino of Lys37 acylated with branched side chain: Pre-linker 8xAdo; Branched linker eps-Lys(Bis); two Post-linkers Trx-gGlu, each carrying a C20 diacid Protractor
# notes: also called Chem. 33; N{Epsilon-37}-acylated [Aib8,Glu22,Arg26,Arg34,Lys37]-GLP-1-(7-37)-peptide
# B8: GLP-1 derivative of Example 14 (peptide)
# peptide: B1 peptide
# modifications: not fully specified; Aib at position 8 (GLP-1 numbering); epsilon-amino of Lys37 acylated with branched side chain: Pre-linker 2xAdo; Branched linker eps-Lys(Bis); two Post-linkers Trx-gGlu-4xAdo, each carrying a C20 diacid Protractor
# notes: also called Chem. 34; N{Epsilon-37}-acylated [Aib8,Glu22,Arg26,Arg34,Lys37]-GLP-1-(7-37)-peptide
# B9: GLP-1 derivative of Example 15 (peptide)
# peptide: B1 peptide
# modifications: not fully specified; Aib at position 8 (GLP-1 numbering); epsilon-amino of Lys37 acylated with branched side chain: Pre-linker 4xAdo; Branched linker eps-Lys(Bis); two Post-linkers Trx-gGlu-2xAdo, each carrying a C20 diacid Protractor
# notes: also called Chem. 35; N{Epsilon-37}-acylated [Aib8,Glu22,Arg26,Arg34,Lys37]-GLP-1-(7-37)-peptide
# B10: GLP-1 derivative of Example 19 (peptide)
# peptide: H[Aib]EGTFTSDVSSYLEEQAAREFIAWLVRGRGK
# modifications: not fully specified (residue 32)
# notes: also called Chem. 39; N{Alpha}([Aib8,Glu22,Arg26,Arg34]-GLP-1-(7-37)-peptidyl)-N{Epsilon}-acylated Lys
# B11: GLP-1 derivative of Example 2 (peptide)
# peptide: B1 peptide
# modifications: not fully specified; Aib at position 8 (GLP-1 numbering); epsilon-amino of Lys37 acylated with branched side chain: Pre-linker 2xAdo; Branched linker eps-Lys(Bis); two Post-linkers Trx-gGlu-2xAdo, each carrying a C20 diacid Protractor
# notes: also called Chem. 22; N{Epsilon-37}-acylated [Aib8,Glu22,Arg26,Arg34,Lys37]-GLP-1-(7-37)-peptide
# B12: GLP-1 derivative of Example 21 (peptide)
# peptide: B1 peptide
# modifications: not fully specified; Aib at position 8 (GLP-1 numbering); epsilon-amino of Lys37 acylated with branched side chain: Pre-linker 4xAdo; Branched linker eps-Lys(Bis); two Post-linkers Trx-gGlu-Ado, each carrying a C20 diacid Protractor
# notes: also called Chem. 41; N{Epsilon-37}-acylated [Aib8,Glu22,Arg26,Arg34,Lys37]-GLP-1-(7-37)-peptide
# B13: GLP-1 derivative of Example 22 (peptide)
# peptide: B1 peptide
# modifications: Aib at position 8 (GLP-1 numbering); epsilon-amino of Lys37 acylated with branched side chain: Pre-linker 3xAdo; Branched linker eps-Lys(Bis); two Post-linkers Trx-gGlu-3xAdo, each carrying a C20 diacid Protractor (the printed name gives (4R) for the gGlu of one arm and (4S) for the other)
# notes: also called Chem. 42; N{Epsilon-37}-acylated [Aib8,Glu22,Arg26,Arg34,Lys37]-GLP-1-(7-37)-peptide
# B14: GLP-1 derivative of Example 3 (peptide)
# peptide: B1 peptide
# modifications: not fully specified; Aib at position 8 (GLP-1 numbering); epsilon-amino of Lys37 acylated with branched side chain: Pre-linker dPEG6; Branched linker eps-Lys(Bis); two Post-linkers Trx-gGlu, each carrying a C20 diacid Protractor
# notes: also called Chem. 23; N{Epsilon-37}-acylated [Aib8,Glu22,Arg26,Arg34,Lys37]-GLP-1-(7-37)-peptide
# B15: GLP-1 derivative of Example 4 (peptide)
# peptide: B1 peptide
# modifications: not fully specified; Aib at position 8 (GLP-1 numbering); epsilon-amino of Lys37 acylated with branched side chain: Pre-linker dPEG12; Branched linker eps-Lys(Bis); two Post-linkers Trx-gGlu, each carrying a C20 diacid Protractor
# notes: also called Chem. 24; N{Epsilon-37}-acylated [Aib8,Glu22,Arg26,Arg34,Lys37]-GLP-1-(7-37)-peptide
# B16: GLP-1 derivative of Example 5 (peptide)
# peptide: B1 peptide
# modifications: not fully specified; Aib at position 8 (GLP-1 numbering); epsilon-amino of Lys37 acylated with branched side chain: Pre-linker dPEG20; Branched linker eps-Lys(Bis); two Post-linkers Trx-gGlu, each carrying a C20 diacid Protractor
# notes: also called Chem. 25; N{Epsilon-37}-acylated [Aib8,Glu22,Arg26,Arg34,Lys37]-GLP-1-(7-37)-peptide
# B17: GLP-1 derivative of Example 6 (peptide)
# peptide: [Desaminohistidyl][Aib]EGTFTSDVSSYLEEQAAREFIAWLVRGRGGK([AEEA-AEEA-AEEA-AEEA-Lys-code γGlu-Trx-C20 diacid),(γGlu-Trx-C20 diacid])
# modifications: also: branched side chain on Lys39: two identical arms on eps-Lys(Bis)
# notes: also called Chem. 26; [Imp7,Aib8,Glu22,Arg26,Arg34]-GLP-1-(7-37)-peptidyl-Gly-N{Epsilon}-acylated Lys
# B18: GLP-1 derivative of Example 7 (peptide)
# peptide: [Desaminohistidyl][Aib]EGTFTSDVSSYLEEQAAREFIAWLVRGRGGK([AEEA-AEEA-Lys-AEEA-AEEA-γGlu-Trx-C20 diacid),(Ado-AEEA-γGlu-Trx-C20 diacid])
# modifications: also: branched side chain on Lys39: two identical arms on eps-Lys(Bis)
# notes: also called Chem. 27; [Imp7,Aib8,Glu22,Arg26,Arg34]-GLP-1-(7-37)-peptidyl-Gly-N{Epsilon}-acylated Lys
# B19: GLP-1 derivative of Example 8 (peptide)
# peptide: B1 peptide
# modifications: Aib at position 8 (GLP-1 numbering); epsilon-amino of Lys37 acylated with branched side chain: Pre-linker 4xAdo; Branched linker eps-Lys(Bis); two Post-linkers Trx-gGlu, each carrying a C20 diacid Protractor
# notes: also called Chem. 28; N{Epsilon-37}-acylated [Aib8,Glu22,Arg26,Arg34,Lys37]-GLP-1-(7-37)-peptide
# B20: GLP-1 derivative of Example 9 (peptide)
# peptide: B1 peptide
# modifications: not fully specified; Aib at position 8 (GLP-1 numbering); epsilon-amino of Lys37 acylated with branched side chain: Pre-linker 2xeps-Lys; Branched linker eps-Lys(Bis); two Post-linkers Trx-gGlu, each carrying a C20 diacid Protractor
# notes: also called Chem. 29; N{Epsilon-37}-acylated [Aib8,Glu22,Arg26,Arg34,Lys37]-GLP-1-(7-37)-peptide
# Assays:
# human GLP-1 receptor [1] = target: T1, human GLP-1 receptor (human, UniProt P43220 24-463); assay: SPA competition, displacement of 125I-GLP-1(7-36)NH2 from BHK membranes with human GLP-1 receptor; high HSA (2.0%)
# T1 construct: whole, on cells
# Procedure: (§1) For the receptor binding assay in the presence of low HSA (0.005%) 50 μl of the assay buffer was added to each well of an assay plate. […] For the receptor binding assay in the presence of high HSA (2%) 50 μl of the 8% albumin stock was added to each well of an assay plate. […] Cell membrane aliquots were thawed and diluted to their working concentration. Fifty μl were added to each well in the assay plate. […] WGA SPA beads were suspended in assay buffer at 20 mg/ml. The suspension was diluted to 10 mg/ml in assay buffer just prior to addition to the assay plate. Fifty μl were added to each well in the assay plate. […] A 25 μl aliquot was reserved for measuring total counts/well. […] The assay plate was incubated for 2 h at 30° C. […] The assay plate was centrifuged for 10 min. […] The assay plate was read in a Packard TopCount NXT instrument.
# (§2) The data from the TopCount instrument were transferred to GraphPad Prism software. Individual replicates were analysed using non-linear regression.
# human GLP-1 receptor [2] = target: T1, human GLP-1 receptor; assay: cell-based or functional assay
# human GLP-1 receptor [3] = target: T1, human GLP-1 receptor; assay: SPA competition, displacement of 125I-GLP-1(7-36)NH2 from BHK membranes with human GLP-1 receptor; low HSA (max. 0.001%)
# Procedure: as §1, §2
Binder,IC50 (human GLP-1 receptor [1]) [nM],"EC50 (pM), in vitro potency, CRE luciferase reporter in BHK cells expressing the human GLP-1 receptor (human GLP-1 receptor [2]) [pM]",IC50 (human GLP-1 receptor [3]) [nM]
B1,140,77,
B2,77,20,0.64
B3,24,37,0.68
B4,,150,19
B5,150,130,1.5
B6,17,57,0.63
B7,32,47,0.17
B8,27,19,0.42
B9,48,48,0.87
B10,34,71,0.69
B11,49,70,0.56
B12,19,38,1.5
B13,63,12,1.4
B14,180,160,
B15,51,110,0.78
B16,9.7,53,0.91
B17,140,150,1
B18,54,79,0.57
B19,45,72,1.1
B20,150,120,1.8
